Experimental data as given in patent US12618111.

Molecular target: LFA1 receptor on T cells (human) (UniProt P20701)
Assay: cell-based or functional assay

UniProt P20701, sequence (P20701 26-1170, chain 1 of 2): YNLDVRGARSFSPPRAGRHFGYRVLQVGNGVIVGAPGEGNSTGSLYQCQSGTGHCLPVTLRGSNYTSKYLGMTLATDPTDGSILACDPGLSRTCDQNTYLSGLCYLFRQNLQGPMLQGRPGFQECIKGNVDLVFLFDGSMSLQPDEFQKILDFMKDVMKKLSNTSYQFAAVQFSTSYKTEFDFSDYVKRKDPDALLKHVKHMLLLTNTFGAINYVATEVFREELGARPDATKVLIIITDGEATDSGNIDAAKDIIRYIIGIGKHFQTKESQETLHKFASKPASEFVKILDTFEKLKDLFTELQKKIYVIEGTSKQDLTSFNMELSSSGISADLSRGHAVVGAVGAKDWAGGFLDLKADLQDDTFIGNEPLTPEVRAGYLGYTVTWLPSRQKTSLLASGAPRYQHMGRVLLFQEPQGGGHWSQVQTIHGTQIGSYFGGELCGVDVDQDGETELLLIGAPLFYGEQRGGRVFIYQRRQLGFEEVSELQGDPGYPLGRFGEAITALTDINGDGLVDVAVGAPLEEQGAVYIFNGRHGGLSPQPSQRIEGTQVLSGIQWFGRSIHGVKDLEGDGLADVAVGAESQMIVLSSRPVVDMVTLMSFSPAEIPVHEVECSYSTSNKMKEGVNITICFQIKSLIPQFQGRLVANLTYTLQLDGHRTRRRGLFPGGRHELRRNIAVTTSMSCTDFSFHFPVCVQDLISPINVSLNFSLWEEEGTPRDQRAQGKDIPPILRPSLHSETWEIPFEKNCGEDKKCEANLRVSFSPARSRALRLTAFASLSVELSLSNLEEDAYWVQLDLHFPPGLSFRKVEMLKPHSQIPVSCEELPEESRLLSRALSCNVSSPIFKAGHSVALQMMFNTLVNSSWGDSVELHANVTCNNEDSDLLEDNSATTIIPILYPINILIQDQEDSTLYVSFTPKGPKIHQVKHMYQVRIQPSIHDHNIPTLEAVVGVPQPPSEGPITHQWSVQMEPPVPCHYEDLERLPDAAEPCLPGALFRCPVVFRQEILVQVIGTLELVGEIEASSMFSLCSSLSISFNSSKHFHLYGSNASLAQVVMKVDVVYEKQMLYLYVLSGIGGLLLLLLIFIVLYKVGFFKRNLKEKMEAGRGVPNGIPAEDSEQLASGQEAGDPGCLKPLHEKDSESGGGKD
UniProt P20701, sequence (P05107 23-769, chain 2 of 2, further chain): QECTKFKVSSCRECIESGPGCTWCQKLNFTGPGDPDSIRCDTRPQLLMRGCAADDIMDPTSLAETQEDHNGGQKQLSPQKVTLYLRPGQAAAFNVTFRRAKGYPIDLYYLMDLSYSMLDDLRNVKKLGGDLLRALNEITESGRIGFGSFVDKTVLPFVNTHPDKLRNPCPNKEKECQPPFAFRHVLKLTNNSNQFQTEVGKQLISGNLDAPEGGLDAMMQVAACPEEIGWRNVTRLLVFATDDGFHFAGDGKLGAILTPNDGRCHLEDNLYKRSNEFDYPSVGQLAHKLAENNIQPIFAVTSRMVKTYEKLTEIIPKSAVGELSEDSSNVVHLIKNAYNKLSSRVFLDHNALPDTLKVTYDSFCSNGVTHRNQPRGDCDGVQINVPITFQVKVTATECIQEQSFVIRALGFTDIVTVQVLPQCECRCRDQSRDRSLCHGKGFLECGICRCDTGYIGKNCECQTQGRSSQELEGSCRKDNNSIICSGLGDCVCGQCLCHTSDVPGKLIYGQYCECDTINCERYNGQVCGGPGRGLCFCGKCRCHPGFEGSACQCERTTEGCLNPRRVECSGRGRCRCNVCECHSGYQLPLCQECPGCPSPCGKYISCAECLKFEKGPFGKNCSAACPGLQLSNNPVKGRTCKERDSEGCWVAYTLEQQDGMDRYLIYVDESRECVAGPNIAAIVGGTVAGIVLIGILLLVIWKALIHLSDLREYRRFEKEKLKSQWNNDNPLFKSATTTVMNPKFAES

anti-LFA1 (TS1/18) monoclonal antibody showed an IFN-γ secretion (ELISA) by CD4+ T cells stimulated with IL12, IL18 and TL1A after pretreatment with LFA1 blocking antibody, compared to IgG control antibody of 43 % reduction.
